Source: US20230109998A1, “MALARIA TRANSMISSION-BLOCKING VACCINES” (PATH, priority 2020, published 2023)

B1: tagged Pfs230D1+: N-terminal Pfs230 fragment (aa 552-731, N585Q) with C-terminal six histidine tag, SEQ ID NO: 2 (protein)
chain: DVGVDELDKIDLSYETTESGDTAVSEDSYDKYASQNTNKEYVCDFTDQLKPTESGPKVKKCEVKVNEPLIKVKIICPLKGSVEKLYDNIEYVPKKSPYVVLTKEETKLKEKLLSKLIYGLLISPTVNEKENNFKEGVIEFTLPPVVHKATVFYFICDNSKTEDDNKKGNRGIVEVYVEPYGHHHHHH
modifications: C-terminal His6 tag; Pfs230D1+
B2: non-tagged Pfs230D1+: N-terminal Pfs230 fragment (aa 552-731, N585Q) without C-terminal tag, SEQ ID NO: 1 (protein)
chain: DVGVDELDKIDLSYETTESGDTAVSEDSYDKYASQNTNKEYVCDFTDQLKPTESGPKVKKCEVKVNEPLIKVKIICPLKGSVEKLYDNIEYVPKKSPYVVLTKEETKLKEKLLSKLIYGLLISPTVNEKENNFKEGVIEFTLPPVVHKATVFYFICDNSKTEDDNKKGNRGIVEVYVEPYG
modifications: Pfs230D1+

Key:
[1] = system: anti-Pfs230 human monoclonal antibodies; experiment: Western blotting of purified Pfs230D1+ with anti-Pfs230 human monoclonal antibodies; type: binding; conditions: Western blot, 10 μg/mL antibody, 20 ng protein per lane, non-reducing conditions
Procedure: Samples were diluted with 4×LDS (Lithium dodecyl sulfate, Invitrogen) sample buffer, heated for 5 min at 90° C. and loaded in a final volume of 20 μL/well on SDS-PAGE gels (4-12% NuPAGE Bis-Tris, Invitrogen). Gels were run at 150-200 V for 35-50 min in 1×2-(N-morpholino) ethanesulfonic acid (MES) sodium dodecyl sulfate (SDS) running buffer and stained with SimplyBlue™ SafeStain (Invitrogen).
Following SDS-PAGE, proteins were transferred onto nitrocellulose membrane and Western blot procedure using anti-Pfs230 human monoclonal antibodies (non patent related). The human monoclonal antibodies were tested for reactivity at 10 μg/mL to 20 ng of Pfs230D1+(non-tagged or tagged) loaded per lane. A secondary goat anti-human antibody was used at 1/2000 dilution followed by development with BCIP/NBT substrate.

P. falciparum NF54 line = experiment: Rat immunization, ELISA of antiserum and standard membrane feeding assay (SMFA) of purified IgG; type: in vivo, Plasmodium falciparum; conditions: SD rats i.m., 20 μg antigen with composition of Example 6 as adjuvant; 250 ug/mL total IgG with complement in SMFA
Procedure: SD rats (Charles River Laboratories Japan) were immunized intramuscularly (i.m.) in the thigh muscles of the hind limb with 50 μL of a vaccine formulation consisting of 20 μg of an antigen, tagged Pfs230D1+ or non-tagged Pfs230D1+, and 8110 μg of the composition of Example 6 as an adjuvant (which corresponded to 10 μg of Compound A); 20 μg of tagged Pfs230D1+ alone for FIG. 2 or 20 μg of tagged Pfs230D1+ and 8110 μg of the composition of Example 6 for FIG. 5; or 8110 μg of the composition of Example 6 alone as a control. Rats received two or three injections on day 0 and 21 or day 0, 21, and 42. On day 42 or 56, rats were sacrificed, and blood was collected. After collection of the whole blood, the blood allowed to clot by leaving it undisturbed at room temperature for 4 hours. The clot was removed by centrifuging at 2,000×g for 10 minutes in a refrigerated centrifuge.
For the sera on day 42 or 56, the antibody levels against corresponding proteins were determined individually by ELISA (FIG. 2a for tagged Pfs230D1+, FIG. 5a for non-tagged Pfs230D1+).
For each group, an equal amount of serum from each rat was pooled regardless of ELISA units. […]
The standardized methodology for performing the SMFA is known in the art. […] Only midguts from mosquitoes with any eggs in their ovaries at the time of dissection were analysed (FIG. 2b for tagged Pfs230D1+, FIG. 5b for non-tagged Pfs230D1+). […]

| Molecule | reactivity to anti-Pfs230 monoclonal antibodies [1] | reactivity to anti-Pfs230 monoclonal antibodies ([1]; listed as Pfs230D1+ containing histidine-tag) | induction of functional antibodies (ELISA units, transmission reducing activity in SMFA) (P. falciparum NF54 line) | reactivity to anti-Pfs230 monoclonal antibodies ([1]; listed as Non-tagged Pfs230D1+) |
| --- | --- | --- | --- | --- |
| B1 | reacted under non-reducing conditions | reacted to two conformational dependent anti-Pfs230 monoclonal antibodies | induced functional antibodies in rats |  |
| B2 | reacted under non-reducing conditions |  | induced functional antibodies in rats | reacted to two conformational dependent anti-Pfs230 monoclonal antibodies |
